pKd: −log10 of the molar value.
What was measured:
[1] = biological target: spike protein of live Wuhan SARS-CoV-2 (SARS-CoV-2) (UniProt P0DTC2)
[2] = biological target: 6×His-tagged receptor-binding domain (RBD) of SARS-CoV-2 spike, Wuhan (SARS-CoV-2) (UniProt P0DTC2); experiment: SPR
[3] = biological target: soluble His-tagged human neonatal Fc receptor (human) (UniProt P55899)
[4] = biological target: dimeric ACE2-albumin fusion: truncated human ACE2 (residues 18–740) fused to full-length wild-type human albumin (human) (UniProt Q9BYF1); experiment: SEC
[5] = biological target: dimeric ACE2-albumin fusion: truncated human ACE2 (residues 18–740) fused to engineered human albumi (human) (UniProt Q9BYF1); experiment: SEC
[6] = biological target: ACE2(18–740)-WT: truncated dimeric human ACE2 (residues 18–740) fused to the N-terminal end of full- (human) (UniProt Q9BYF1); experiment: SPR
[7] = biological target: ACE2(18–740)-WT: truncated dimeric human ACE2 (residues 18–740) fused to the N-terminal end of full- (human) (UniProt Q9BYF1); experiment: SPR; pH 5.5

Sequence of soluble His-tagged human neonatal Fc receptor (human FcRn-His) (P55899 24-297): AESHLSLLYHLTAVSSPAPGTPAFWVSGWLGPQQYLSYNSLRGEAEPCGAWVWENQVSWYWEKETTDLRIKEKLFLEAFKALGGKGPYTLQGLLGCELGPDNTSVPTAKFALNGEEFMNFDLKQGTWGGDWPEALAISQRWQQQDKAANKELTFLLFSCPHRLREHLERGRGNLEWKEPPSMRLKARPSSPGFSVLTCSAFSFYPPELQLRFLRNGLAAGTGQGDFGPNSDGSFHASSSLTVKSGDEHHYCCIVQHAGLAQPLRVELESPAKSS
Sequence of soluble His-tagged human neonatal Fc receptor (human FcRn-His) (P61769 21-119): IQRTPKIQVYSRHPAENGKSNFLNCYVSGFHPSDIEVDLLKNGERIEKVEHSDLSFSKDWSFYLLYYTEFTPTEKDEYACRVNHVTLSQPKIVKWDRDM
Sequence of soluble His-tagged human neonatal Fc receptor (human) (P55899 24-297, chain 1 of 2): as the sequence (P55899 24-297) above
Sequence of soluble His-tagged human neonatal Fc receptor (human) (P61769 21-119, chain 2 of 2, further chain): as the sequence (P61769 21-119) above

Substance: ACE2(18–740)-WT: truncated dimeric human ACE2 (residues 18–740) fused to the N-terminal end of full- (from UniProt Q9BYF1-1;P02768)
- Table S3: IC50 of live virus neutralization (Wuhan SARS-CoV-2 on Vero E6 cells) [1]: 293 nM
- pKd [2]: 9.05
- koff [2]: 0.00015 s⁻¹
- kon [2]: 166000 M⁻¹ s⁻¹

Substance: ACE2(18–615)-QMP: monomeric ACE2 peptidase domain (residues 18–615) fused to the N-terminal end of QMP human albumin (from UniProt Q9BYF1-1;P02768)
- pKd [2]: 6.97
- koff [2]: 0.026 s⁻¹
- kon [2]: 240000 M⁻¹ s⁻¹

Substance: dimeric ACE2-albumin fusion: truncated human ACE2 (residues 18–740) fused to full-length wild-type human albumin (from UniProt Q9BYF1;P02768)
- plasma half-life after IV injection in human FcRn Tg32 mice [3]: 26.4 h
- stoichiometry N [4]: 2

Substance: ACE2(18–615)-WT: monomeric ACE2 peptidase domain (residues 18–615) fused to the N-terminal end of fu (from UniProt Q9BYF1-1;P02768)
- pKd [2]: 6.49
- koff [2]: 0.0124 s⁻¹
- kon [2]: 38000 M⁻¹ s⁻¹

Substance: dimeric ACE2-albumin fusion: truncated human ACE2 (residues 18–740) fused to engineered human albumi (from UniProt Q9BYF1 18-740)
- stoichiometry N [5]: 2

Substance: soluble His-tagged human neonatal Fc receptor (human FcRn-His) (from UniProt P55899 24-297; P61769 21-119)
- kon [6]: 60000 M⁻¹ s⁻¹
- pKd [7]: 6.99
- koff [7]: 0.0061 s⁻¹
